Blank lines part the entries; values can stand above or below the binder they belong to.
Assays:
[1] = target: T1, recombinant peptide consisting of amino acids 262-534 of tenascin-W (human, UniProt Q9UQP3 262-534); assay: Biacore, tenascin-W 262-534 on a CM-5 chip, scFv
T1 construct: also called recombinant tenascin-W peptide used to isolate the G10 antibody
T1 sequence: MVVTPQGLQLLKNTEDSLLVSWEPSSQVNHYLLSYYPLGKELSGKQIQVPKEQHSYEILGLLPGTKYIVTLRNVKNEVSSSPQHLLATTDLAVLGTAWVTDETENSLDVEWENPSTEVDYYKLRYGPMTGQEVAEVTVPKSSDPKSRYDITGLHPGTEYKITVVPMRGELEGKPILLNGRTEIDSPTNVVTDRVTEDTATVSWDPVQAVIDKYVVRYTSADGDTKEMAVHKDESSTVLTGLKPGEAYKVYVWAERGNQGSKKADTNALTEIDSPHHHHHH
Experimental: A monomeric fraction of the purified G10 antibody was analyzed by surface plasmon resonance (BIAcore, 3000 system). A recombinant peptide consisting of amino acids 262-534 of tenascin-W was covalently coupled to the surface of the CM-5 sensor Chip. Twenty-five microliters of each sample were injected at the flow rate of 10 μL/min. The regeneration of the chip was performed with 5 μL of 10 mM glycine-HCl, pH 2.5 (GE Healthcare).

[2] = target: T2, catalytic domain of human MMP3 (amino acids 100-273), recombinant (human, UniProt P08254 100-273, biotinylated (in the ELISA)); assay: ELISA on biotinylated catalytic domain, scFv
T2 construct: range 100-273; also called HsMMP3; human MMP3 catalytic domain
T2 sequence (P08254 100-273 limits assumed): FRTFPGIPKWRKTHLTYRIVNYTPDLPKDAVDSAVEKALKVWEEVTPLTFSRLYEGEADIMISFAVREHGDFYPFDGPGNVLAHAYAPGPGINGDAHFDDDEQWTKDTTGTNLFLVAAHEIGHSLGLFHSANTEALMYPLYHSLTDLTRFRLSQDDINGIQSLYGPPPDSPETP

binding result [1]: binds
B1: antibody G10 in scFv format (scFv, V domains shown)
VH: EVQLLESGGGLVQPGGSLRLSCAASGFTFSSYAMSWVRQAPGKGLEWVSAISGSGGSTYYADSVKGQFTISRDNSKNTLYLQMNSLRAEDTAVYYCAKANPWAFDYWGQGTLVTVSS
VL: SELTQDPAVSVALGQTVRITCQGDSLRSYYASWYQQKPGQAPVLVIYGKNNRPSGIPDRFSGSSSGNTASLTITGAQAEDEADYYCNSSGSQRSPVVFGGGTKLTVL
notes: The monomeric fraction was used in Biacore

binding result [2]: binds
B2: anti-human MMP3 antibody CH01 in scFv format (scFv, V domains shown)
VH: EVQLLESGGGLVQPGGSLRLSCAASGFTFSPYAMSWVRQAPGKGLEWVSAITGQGGVTYYADSVKGRFTISRDNSKNTLYLQMNSLRAEDTAVYYCAKISSFHFDYWGQGTLVTVSS
VL: EIVLTQSPGTLSLSPGERATLSCRASQSVSSHHLAWYQQKPGQAPRLLIYDASSRATGIPDRFSGSGSGTDFTLTISRLEPEDFAVYYCQQPRGAPTTFGQGTKVEIK
notes: The scFv is myc-tagged (detected with anti-myc 9E10); also called scFv(CH01)
